In the nanobody polyreactivity screen of Harvey et al. (2022):

Assay: yeast display, Sf9 membrane polyspecificity reagent, FACS + sequencing; frameworks hold sequencing errors
Method in brief: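 Galactose induction of a Saccharomyces cerevisiae BJ5465 synthetic nanobody display library ran 36–48 hours. The cells were then stained for 1 hour at 4 °C with 10% biotinylated, detergent-solubilized Sf9 membrane reagent, pulled down on streptavidin microbeads and FACS-sorted into low and high (top ~1%) gates on expression and reagent-binding fluorescence. Labels for polyreactivity follow the gate of origin.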

| Sequence | polyreactivity (PSR sort gate) |
| --- | --- |
| QVQLVESGGGLVQAGGSLRLSCAASGLIFGYYAMGWYRQAPGKERELVAAITSSGASTYYADSVKGRFTISRDNAKNSVYLQMNSLKPEDTAVYYCNKYRYRSLGYDYWGQGTQVTVSS | high polyreactivity |
| QVQLVESGGGLVQAGGSLRLSCAASGLTFLFYAMGWYRQAPGKERELVASIRWSDGRTYYADSVKGRFTISRDNAKNTVYLQMNSLKPEDTAVYYCAVVPAYVYLNREYYWGQGTQVTVSS | high polyreactivity |
| QVQLVESGGGLVQAGGSLRLSCAASGYNFDDNAMGWYRQAPGKERELVATNYADSVKGRFTISRDNAKNTVYLQMKSLKPEDTAVYYCAKDVWQTYTDLDHWGQGTQVTVSS | low polyreactivity |
| QVQHVESGGGLVQAGGSLRLSCAASGRIINTYAMGWYRPAPGKERELVAAISWSGGSTYYADSVKGRFTISRDNAKNTVDLQMNSLKPEDTAVYYCNAAYYGYENLSKRGYWGQGTQVTVSS | high polyreactivity |
| QVQLVESGGGLVQAGASLRLSCAASGSTFYGNTMGWYRQAPGKERELVAAITSTGRTYYADSVKGRFTLSRDNAKNTVYLQMNSLKPEDTAVYYCAASQRRRFQRPSFDYWGQGPQVTVSS | high polyreactivity |
| QVQLVESGGGLVQAGGTLRLSCAASGITFTGNDMGWYRQAPGKERELVAAISNRGGSTYYADSVKGRFTISRDNAKNTVYLQMNSLKPEDTAVYYCRTSTPRRVSGNYWGQGTQVTVSS | high polyreactivity |
| QVQLVESGGGLVQAGGSLRLSCAASGSIFKYYAMGWYRQAPGKERELVAAISSGGITNYADSVKGRFTISRDNAKNTVYLQMNSLKPEDTAVYYCAARDYVRFGLYDYDYWGQGTQVTVSS | low polyreactivity |
| QVQLVESGGGLVQAGGSLRLSCAASGSTLSYYAMGWYRQAPGKERELVAAISSGGTTNYADSVKGRFTISRDNAKNTVYLQMNSLKPEDTAVYYCAAVRKSWWYSSEYYYWGQGTQVTVSS | low polyreactivity |
| QVQHVESGGGLVQAGGSLRLSCAASGRIFYCYAMGWYRQAPGKERELVAAISWSGGSTYYADSVKGRFTISRDNAKNTVYLQMNSLKPEDTAVYYCARRYRGGYKYDYWGQGTQVTVSS | high polyreactivity |
| QVQLVESGGGLVQAGGSLRLSCAASGSIFVVYAMGWYRQAPGKEREMVAVISNGGTTNYADSVKGRFTISRDNAKNTVYLQMNSLKPEDTAVYYCAKASSRRYWTIRDGDYWGQGTQVTVSS | low polyreactivity |
| QVHLVETGGGLVQAGGSLRISCAASGFTFSRYAMVWYRQAPGKERELVAAITSRGGSTYYADSVKGRFTISRDNAKNTVYLQMNSLKPEDTAFYYCAASGRNRKDGLYEYYYWGQGTQVTVSS | high polyreactivity |
| QVQLVESGGGLVQAGGSLRLSCAASGGIFTYYVLGWYRQAPGKERELVAAITIGDSTYYADSVKGRFTISRDNAKNTVYVQINSLKPEDTAVYYCNADPYNTWGFTNGYWGQGTQVTVSS | low polyreactivity |
| QVQLVESGGGLVQAGGSLRLSCAASGSIFGSNAMGWYIQAPGKERELVAAITWSDGSTYYADSVKGRFTISRDNAKNTVYLQMNSLKPEDTAVYYCAADSWWGIYYSGYDYWGQGTQVTVSS | low polyreactivity |
| QVQLVESGGGLVQAGGSLRLSCAASGRIFNWYGMGWYRQAPGKERELVATISSSGDSTYYADSVKGRFTISRDNAKNTVYLQMNSLKPEDTAVYYCAKRARYKFGYWGQGTQVTVSS | high polyreactivity |
| QVQLVESGGGLVQAGGSLRLSCAASGYTFPVYAKGWYRQASRKERELVATSTSGGSTNYADSVKGRFTISRDNAKNTVYFQMNSLKPEDTAVYYCAADRALSISLYPIASFYYWGQGTQVTVSS | low polyreactivity |
| QVQLVESGGGLVQAGGSLRLSCAASGRIFRGYAMGSYRQETGKETELVAAISRSGGSTYYADSVKGRFTISRDNAKNTVYLQMNILKPEDTAVYYCNTKYVRYYRRYDSWGQGTQVTVSS | high polyreactivity |
| QVQLVESGGGLVQAGGSLRLSCAASGSTLGYYAMGWYRQAPGKERELVAAISGRGTSTYYADSVKGRFTISRDNAKTTVYLQMNSLKPEDSAVFYCAAQLFRELYWGQGTQVNVSS | high polyreactivity |
| QVQLVESGGGLVQAGGSLRLSCAASGGTSRSYAMGWYRQAPGKERELVAAISWRGGRTYYADSVKGRFTISRDNAKNTVYLQMNSLKPEDTAVYYCAARQYSQEPYDYWGQGTQVTVSS | high polyreactivity |
| QVQLVESGGGLVQAGGSLRLSCAASGSIFVGNAMGWYRQAPVKERELVADINVTGGTTYYADSVKGRFTISRDNAKNTVYLQMNSLKPEDTAVYYCAARQSIFYSWTGVEYYYWGQGTQVTVSS | low polyreactivity |
| QVQLVESGGGLVQAGGSLRLSCAASGSIFVWNAMGWYRPAPGKERELVAAIRSDDDSTYYADSVKGRFTISRDNAKNTVYLQMNSLKPEDTAVITALVDSPTFSHVKPWDGGDYWGQGTQVTVSS | low polyreactivity |
| QVQLVESGGGLVQAGGSLRLSCDDSGGIFGFYSMGWYRQAPGKERELVAAISGDGGSTYYADSVKGRFTISRDNATNTVYLQMNSLKPEDTAVYYCTAAFFTEYYQGDYWGQGTQVTVSS | low polyreactivity |
| QVQLVESGGGLVQAGGSLRISCAASGFTFSYNAMGWYRQAPGKERELVAGINVSSGGDTYADSVKGRFTISRDNAKNTVYLQMNSLKPEDTAVYYCAKDHYGDDTYGTPYDYDYWGQGTQVTVSS | low polyreactivity |

| Sequence | polyreactivity (PSR sort gate) |
| --- | --- |
| QVQLVESGGGLVQAGGSLRLSCADSGRIFGYYAMGWYRQAPGKERELVAAITVSDGRTNYADSVKGRFTISRDNAKNTVYLQMNSLKPEDTAVYYCAAVTPFRVLYDYWGQGTQVTVSS | low polyreactivity |
| QVQLVESGGGLVQAGGSLRLSCASSGRIFSDYAMGWYRQAPGKEMEFVAAISSSGGRTYYADSVKGRFTISRDNAKNTFYLQMNSLKQEDTAVYYCNRYYGYYNTGRYGYWGQGTQVTVSS | high polyreactivity |
| QVQLVESGGGLVQAGGSLRLSCSASGFTFRSYAMGWYRQAPGEEREFVAAISRRGDSTYYADSVKGRFTISRDNAKNTVYLQMNSLKPEDTAVYYCAKYGIASRYSRFDSWGQGTQVTVSS | high polyreactivity |
| QVQLVESGGGLVQAGGSLRLSCAASDTPSSSMLMGWYRQAPGKERELVAAISGSDGTTYYADSVKGRFTISRDNAKNTVYLQMNSLKPEDTAVYYCAADDRVDSGYIKDDYWGQGTQVTVSS | low polyreactivity |
| QVQLVESGGGLVHAGGSLRLSCAASGSTFHYYAMGWYRQPPGKERELDAGITSGGGRTYADSVKGRFTISRDNAKITVYLQMNSLNPEDTAVYYCNARPSTGWTIYGVDYWGQGTQVTVSS | low polyreactivity |
| QVQLVESGGGLVQAGGSLRLSCAASGGTFYYYAMGWYRQAPGKERELVAAINVSGGNTYYADSVKGRFTISRDNAKNTVYLQMNSLKPEDTAVYYCAADPGARYYYWGQGTQVTVSS | low polyreactivity |
| QVQLVESGGGLVQAGGSLGLSCAASGSTLYGNAMGWYRQAPGKERELVAAINTGGSTNYADSVKGRFTISRDNAKNTVYVQMNSLKPEDTAVYYCAADYEWDATHDYWGQGTQVTVSS | low polyreactivity |
| QVQLVESGGSLVQAGGSLRLSCAASGSIFFYYAMGWYRQAPGKERELVAAISWSGGSTYYADSVKGRFTISRDNAKNTVYLQMNSLKPEDTAVYYCAADRPYAGRYWKGYHSALYDYWGQGTQVTVSS | low polyreactivity |
| QVQLVESGGGLVQAGGSLRLSCAASGSIFGGNAMGWYRQAPGKERELVATITVRGGSTYYADSVKGRFTISRDNAKHTVYLQMNSLKPEDTAVYYCAARGGYLLPKYDYWGQGTQVTVSS | low polyreactivity |
| QVQLVESGGGLVQAGGSLRLSCGASGGIFIFYAMGWYRHAPGKERELVAAISNVSSTNYADSVKGRFTISRDNAKHTVYLEMNSLKPEDTAVYYCNAVGVPSEYYSWGQGTQVTVSS | low polyreactivity |
| QVQLVESGGGLVQAGGSLRISCAASGFIFGTNAKGWYRQAPGKERELVAAINCRGGGTYYADSVKGRFTISRDNAKYTVYLEMNSLKPEDTAVYYCAASRFDYWGQGTQVTVSS | low polyreactivity |
| QVQLVESGGGLVQAGGSLRLSCAASGRTFNYYAMGWYRQAPGKERELVAAISRSGGSTYYADSVKGRFTISRDNAKNTVYLQMNSLKPEDTAVYYCAVAWNVRGVGARQRYIYGYWGQGTQVTVSS | high polyreactivity |
| QVQLVESGGGLVQAGASLRLSCAASGFTFDSYAMGWYRQAPGKDRELVAVISATGAITYYADSVKGRFTISRDNAKNTVYLPMNSLKPEDTAVYYCAVQVSWSYYRYGYWGQGTQVTVSS | low polyreactivity |
| QVQLVESGGGLVQAGGSLRLSCAASGLIFYSYTMGWYRQAPGKERELVASITWTGGSTYYADSVKGRFTISRDNAKNTVYLQMNSLKPEDTAVYYCAVRVPSSIHIQLDYWGQGTQVTVSS | high polyreactivity |
| QVQLVESGGGLVQAGGSLRLSCAASGSTFYPYAMGWYRQAPGKERELVAAISLSDTITYYADSVKGRFTISRDNAKNTVYLQMNSLKPEDTAVYYCAAETPGFVLYEYWGQGTQVTVSS | high polyreactivity |
| KVQLVESGSGFVQAGGSLGLSCAASGSIFRGYAMGWYRQAPGKERELVAAISWSGGTTYYADSVKGRLTISRDNEKNTFYLQMNSLKPEDTAVYYCAADTTVTITSKYNYWVQGTQVTVSS | low polyreactivity |
| QVQLVESGGGLVQAGGSLLLICSASGSTFVRHAMGWYRHAPGKESELDAAISTRGGSTSYADSVKGRFTISRDNSKNSVYLQMKSLKQEDTAVYYCAKVLAYSQGIRHGYWGQGTQVTVSS | low polyreactivity |
| QVQLVESGRGLVQTGGSLRLSCAASGLVNAMGWYRQAPWKERELVAAISSGGSTYYADSVKGRFTISRDNAKNTVYLQMNSLKPEDTAVYYCNAVYFRHYGYGYWGQGTQVTVSS | low polyreactivity |
| QVQLVESGGGLVQAGGSLRLSCAASGRTFWWNAMGWYRQAPGKERELVASISSGGSTNYADSVKGRFTISRDNAKKTVYLQMNSLKPEDTAVYYCARGYRWRGTVSRWSRYYQAHDYWGQGTQVTVSS | low polyreactivity |
| QVQLVESGGGLVQAGGSLRLSCAASGRTFGYNVMGWYRQAPGKEMELVAGITSSGSTNYADSVKGRFTISRDNAKNTVYLQMNSLKPEDTAVYYCNADRLITWQLLYISSYRYDYWGQGTQVTVSS | high polyreactivity |
| QDQLVDSGGGLVQAGGRLRLSCAASGSTYRTYAMVRYRQAPGKERELVAAINSGGSTYYADSVKGRFTISRDNAKNTVYLQMNSLKPEDTAVYSCAREDYVSYRLLYYLFDYWGQGTQVTVSS | low polyreactivity |
